PMC5573325

Experiments:
[1] = molecular target: integrin αIIbβ3 (human (endogenous in platelets)) (UniProt P08514); assay: flow cytometry on cells; FITC-triflavin (2 µg/ml) added to resting washed human platelets treated with 0.5 µM TQ-6
[2] = molecular target: integrin αIIbβ3 (human (endogenous in platelets)) (UniProt P08514); assay: flow cytometry on cells; FITC-triflavin (2 µg/ml) added to resting washed human platelets (3.6 × 10^8 cells/ml) in Tyrode's solution, 3 min; no additive (positive control)
[3] = molecular target: integrin αIIbβ3 (human (endogenous in platelets)) (UniProt P08514); assay: flow cytometry on cells; FITC-triflavin (2 µg/ml) added to resting washed human platelets treated with 0.3 µM TQ-6

UniProt P08514, sequence (P08514 32-1039, chain 1 of 2): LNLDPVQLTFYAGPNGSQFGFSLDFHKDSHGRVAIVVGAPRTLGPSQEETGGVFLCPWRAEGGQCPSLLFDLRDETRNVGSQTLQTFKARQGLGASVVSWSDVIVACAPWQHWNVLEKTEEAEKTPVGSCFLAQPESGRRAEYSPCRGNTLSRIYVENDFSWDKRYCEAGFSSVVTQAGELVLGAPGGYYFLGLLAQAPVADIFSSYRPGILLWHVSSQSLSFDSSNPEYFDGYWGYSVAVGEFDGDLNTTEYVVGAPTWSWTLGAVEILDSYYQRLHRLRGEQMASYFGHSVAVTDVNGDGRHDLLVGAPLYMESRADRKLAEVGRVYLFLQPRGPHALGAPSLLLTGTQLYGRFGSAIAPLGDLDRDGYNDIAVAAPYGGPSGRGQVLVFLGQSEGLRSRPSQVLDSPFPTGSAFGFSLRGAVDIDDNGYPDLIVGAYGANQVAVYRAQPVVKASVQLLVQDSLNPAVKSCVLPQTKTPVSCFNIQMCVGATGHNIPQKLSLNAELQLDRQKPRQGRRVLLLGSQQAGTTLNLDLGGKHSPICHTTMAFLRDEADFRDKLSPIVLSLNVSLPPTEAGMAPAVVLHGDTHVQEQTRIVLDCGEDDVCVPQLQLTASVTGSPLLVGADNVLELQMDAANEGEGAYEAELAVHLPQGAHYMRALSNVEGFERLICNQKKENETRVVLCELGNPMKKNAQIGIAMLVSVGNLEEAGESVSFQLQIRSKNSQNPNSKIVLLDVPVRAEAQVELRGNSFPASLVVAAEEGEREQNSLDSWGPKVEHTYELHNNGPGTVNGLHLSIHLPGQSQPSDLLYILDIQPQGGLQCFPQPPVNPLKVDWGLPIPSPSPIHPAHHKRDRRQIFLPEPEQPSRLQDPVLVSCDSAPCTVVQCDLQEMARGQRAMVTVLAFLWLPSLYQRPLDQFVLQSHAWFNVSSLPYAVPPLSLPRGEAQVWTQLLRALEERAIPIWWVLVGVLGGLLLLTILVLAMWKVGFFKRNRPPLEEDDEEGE
UniProt P08514, sequence (P05106 27-788, chain 2 of 2, further chain): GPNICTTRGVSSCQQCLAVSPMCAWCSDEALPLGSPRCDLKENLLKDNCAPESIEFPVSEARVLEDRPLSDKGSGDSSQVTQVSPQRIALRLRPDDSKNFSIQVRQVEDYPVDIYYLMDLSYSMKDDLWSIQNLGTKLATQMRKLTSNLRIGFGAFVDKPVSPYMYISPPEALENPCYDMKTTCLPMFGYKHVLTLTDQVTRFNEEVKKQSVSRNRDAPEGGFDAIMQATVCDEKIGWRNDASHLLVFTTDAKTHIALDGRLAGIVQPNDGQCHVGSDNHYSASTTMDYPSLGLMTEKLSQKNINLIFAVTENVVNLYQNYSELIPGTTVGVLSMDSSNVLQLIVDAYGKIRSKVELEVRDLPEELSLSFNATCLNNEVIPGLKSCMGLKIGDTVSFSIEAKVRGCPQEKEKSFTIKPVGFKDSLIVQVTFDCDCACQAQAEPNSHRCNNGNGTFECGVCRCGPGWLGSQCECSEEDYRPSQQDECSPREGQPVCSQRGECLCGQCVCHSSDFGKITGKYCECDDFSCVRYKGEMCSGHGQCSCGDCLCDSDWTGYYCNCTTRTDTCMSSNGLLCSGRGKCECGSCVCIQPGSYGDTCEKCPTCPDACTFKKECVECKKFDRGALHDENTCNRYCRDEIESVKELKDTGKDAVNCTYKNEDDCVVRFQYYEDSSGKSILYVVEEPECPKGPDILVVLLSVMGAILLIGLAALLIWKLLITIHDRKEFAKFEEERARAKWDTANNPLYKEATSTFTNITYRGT

In the case of triflavin (natural protein), the relative fluorescence intensity [1] is reported as 1220, the relative fluorescence intensity [2] is reported as 1150 and the relative fluorescence intensity [3] is reported as 1260.
